According to article PMC4980809 (2016):

Biological target: F-actin (skeletal muscle actin) (Oryctolagus cuniculus, UniProt P68135)
Assay: actin co-sedimentation assay

B1: Alpha-actinin-2 19-266 (protein)
chain: YMIQEEEWDRDLLLDPAWEKQQRKTFTAWCNSHLRKAGTQIENIEEDFRNGLKLMLLLEVISGERLPKPDRGKMRFHKIANVNKALDYIASKGVKLVSIGAEEIVDGNVKMTLGMIWTIILRFAIQDISVEETSAKEGLLLWCQRKTAPYRNVNIQNFHTSWKDGLGLCALIHRHRPDLIDYSKLNKDDPIGNINLAMEIAEKHLDIPKMLDAEDIVNTPKPDERAIMTYVSCFYHAFAGAEQAETAA
  Kd: 7.5 µM
